Measurements: publication doi:10.1101/068262 (bioRxiv, 2016)
No end group written: not given here.

B1: fluorescently labeled AFF1 peptide (residues 358-390) (peptide)
peptide: EILKEMTHSWPPPLTAIHTPSTAEPSKFPFPTK
modifications: also: fluorescent label, site not given here
B2: His6-tagged wild-type AFF4^ELLBow (AFF4 301-351) (peptide)
chain: PSQPLDASASGDVSCVDEILKEMTHSWPPPLTAIHTPCKTEPSKFPFPTKE
B3: AFF4^ELLBow P342D (301-351) (peptide)
chain: PSQPLDASASGDVSCVDEILKEMTHSWPPPLTAIHTPCKTEDSKFPFPTKE
B4: AFF4^ELLBow I334D (301-351) (peptide)
chain: PSQPLDASASGDVSCVDEILKEMTHSWPPPLTADHTPCKTEPSKFPFPTKE
B5: AFF4^ELLBow F345D/F347D (301-351) (peptide)
chain: PSQPLDASASGDVSCVDEILKEMTHSWPPPLTAIHTPCKTEPSKDPDPTKE
B6: AFF4^ELLBow I319D/L320D (301-351) (peptide)
chain: PSQPLDASASGDVSCVDEDDKEMTHSWPPPLTAIHTPCKTEPSKFPFPTKE
B7: AFF4^ELLBow M323D (301-351) (peptide)
chain: PSQPLDASASGDVSCVDEILKEDTHSWPPPLTAIHTPCKTEPSKFPFPTKE
B8: AFF4^ELLBow E322H (301-351) (peptide)
chain: PSQPLDASASGDVSCVDEILKHMTHSWPPPLTAIHTPCKTEPSKFPFPTKE
B9: AFF4^ELLBow I319D/L320D/M323D (301-351) (peptide)
chain: PSQPLDASASGDVSCVDEDDKEDTHSWPPPLTAIHTPCKTEPSKFPFPTKE
B10: AFF4^ELLBow L331D (301-351) (peptide)
chain: PSQPLDASASGDVSCVDEILKEMTHSWPPPDTAIHTPCKTEPSKFPFPTKE
B11: AFF4^ELLBow W327D (301-351) (peptide)
chain: PSQPLDASASGDVSCVDEILKEMTHSDPPPLTAIHTPCKTEPSKFPFPTKE
B12: AFF4^ELLBow double 328-329 Pro-Gly mutant (301-351) (peptide)
chain: PSQPLDASASGDVSCVDEILKEMTHSWGGPLTAIHTPCKTEPSKFPFPTKE

How the values were obtained:
[1] = target: Sumo-ELL2(519-640) (human) (UniProt O00472); assay: fluorescence polarisation
Sumo-ELL2(519-640) (human), sequence (O00472 519-640): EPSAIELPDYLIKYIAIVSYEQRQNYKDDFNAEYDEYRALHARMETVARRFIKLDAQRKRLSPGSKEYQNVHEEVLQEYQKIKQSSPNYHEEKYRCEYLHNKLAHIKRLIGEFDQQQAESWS

[2] = target: ELL2^Occ–(Gly-Ser)4-AFF4^ELLBow fusion (UniProt Q9UHB7); assay: SEC
Sumo-ELL2(519-640) = Sumo-ELL2(519-640) (human, UniProt O00472 519-640); assay: fluorescence polarisation
Sumo-ELL2(519-640), sequence (O00472 519-640): as above

GST-ELL2 (519-640) H559E = GST-ELL2 (519-640) H559E (human, UniProt O00472 519-640, H559E); assay: pull-down
GST-ELL2 (519-640) H559E, sequence (O00472 519-640 H559E): as the sequence (O00472 519-640) above, with H41E counted along it

GST-ELL2 (519-640) H608E = GST-ELL2 (519-640) H608E (human, UniProt O00472 519-640, H608E); assay: pull-down
GST-ELL2 (519-640) H608E, sequence (O00472 519-640 H608E): as the sequence (O00472 519-640) above, with H90E counted along it

GST-ELL2 (519-640) N619A = GST-ELL2 (519-640) N619A (human, UniProt O00472 519-640, N619A); assay: pull-down
GST-ELL2 (519-640) N619A, sequence (O00472 519-640 N619A): as the sequence (O00472 519-640) above, with N101A counted along it

GST-ELL2 (519-640) K625T = GST-ELL2 (519-640) K625T (human, UniProt O00472 519-640, K625T); assay: pull-down
GST-ELL2 (519-640) K625T, sequence (O00472 519-640 K625T): as the sequence (O00472 519-640) above, with K107T counted along it

| Molecule | fold reduction of affinity against wild type (Sumo-ELL2(519-640)) [fold] | other results |
| --- | --- | --- |
| AFF4^ELLBow α1 mutant D317P/E317P (301-351) (from UniProt Q9UHB7 301-351) (peptide) | – | fold reduction of affinity against wild type [1]: 10 fold |
| ELL2^Occ–(Gly-Ser)4-AFF4^ELLBow fusion (from UniProt Q9UHB7 301-351) | – | stoichiometry N [2]: 2 |
| B1 | – | binding result (Sumo-ELL2(519-640)): binds |
| B2 | – | binding result (GST-ELL2 (519-640) H559E): binds; binding result (GST-ELL2 (519-640) H608E): binds; binding result (GST-ELL2 (519-640) N619A): binds; binding result (GST-ELL2 (519-640) K625T): binds; Kd (Sumo-ELL2(519-640)): 86 nM |
| B3 | 3 | – |
| B4 | 8 | – |
| B5 | < 2 | – |
| B6 | > 25 | – |
| B7 | > 25 | – |
| B8 | < 2 | – |
| B9 | – | Kd (Sumo-ELL2(519-640)): > 3000 nM |
| B10 | ~20 | – |
| B11 | 4 | – |
| B12 | 3 | – |
